Results reported in publication PMC7083937, “The ribosome-associated complex RAC serves in a relay that directs nascent chains to Ssb” (Nature Communications, 2020).
“Also recorded” adds a separate entry of the source.

Legend:
ribosomes = test: ribosome-binding assay; set-up: species or system Saccharomyces cerevisiae
Procedure: Yeast strains were grown to early log phase on YPD, prior to harvest cycloheximide was added to a final concentration of 100 µg/ml, and subsequently cells were collected via centrifugation at 5000 g. Cell pellets were resuspended in ribosome-binding buffer (20 mM Hepes/KOH pH 7.4, 2 mM Mg(OAc)2, 120 mM KOAc, 100 µg/ml cycloheximide, 2 mM DTT, 1 mM PMSF, protease inhibitor mix) and total cell extracts were prepared by the glass beads method. After a clearing spin at 20.000 g, each 60 µl of the total glass beads extract (A260 between 80 and 100 mAU) was loaded onto a 90 µl sucrose cushion (25% sucrose, 20 mM Hepes/KOH pH 7.4, 120 mM KOAc, 2 mM Mg(OAc)2, 2 mM DTT, 1 mM PMSF, protease inhibitor mix). After centrifugation at 400.000 g at 4 °C for 25 min the cytosolic supernatant was collected and the ribosomal pellet was resuspended in 300 µl ribosome-binding buffer. Aliquots of the total cell extract, cytosolic supernatant, and resuspended ribosomal pellets were precipitated by addition of TCA (trichloroacetic acid) to a final concentration of 5%. TCA pellets were dissolved in SDS-sample buffer and were analyzed on 10% Tris-Tricine gels followed by immunoblotting.

nascent Pgk1-100 = test: crosslinking to ribosome-bound nascent chain; type: binding, Saccharomyces cerevisiae; details: BS3
Excerpt: (§1) DNA templates for transcription reactions were generated by PCR using pSPUTK-Pgk1[20] as a template. Reverse primers were designed such, that PCR products encoded different length PGK1 sequences, which all lacked a stop codon. The length of the resulting translation products, which remain ribosome-bound, is indicated in Results and Figure Legends. Transcripts were generated using SP6 polymerase (Thermo Fischer Scientific) as previously described. RNCs were generated via translation reactions primed with the stop codon-less transcripts at 20 °C in the presence of [^35S]-methionine (Hartmann-Analytic) for 80 min[20],[54]. Translation reactions were stopped by the addition of 50 µg/ml cycloheximide final concentration and subsequently RNCs were isolated via centrifugation at 400.000 g for 20 min in a TLA-100 or TLA-100.2 rotor (Beckman Coulter)[20].
(§2) Chemical crosslinking of ribosome-bound nascent chains to Ssb, Zuo1, or Ssz1 was analyzed essentially as described. In brief, resuspended RNCs were incubated in the presence of 400 µM BS^3 (bis-(sulfosuccinimidyl)-suberate, spacer length 1.14 nm, Thermo Scientific) for 20 min on ice and crosslinking was then quenched by the addition of TRIS base (tris(hydroxymethyl)aminomethane) to a final concentration of 50 mM. Crosslinked protein samples were precipitated by the addition of TCA (final concentration 5%), pellets were collected by centrifugation and were dissolved in dissociation buffer (200 mM TRIS/HCl pH 7.5, 4% SDS; 10 mM EDTA, 100 µg/ml BSA, protease inhibitor mix, 1 mM PMSF). Totals shown in Figs. 1,3 and Supplementary Fig. 1 before (total) and after BS^3 crosslinking (total + BS^3) represent 5% of the dissolved material employed for immunoprecipitation reactions. The resulting denatured protein samples were used to identify crosslink products between Ssb, Zuo1, or Ssz1 and nascent chains via affinity purification under denaturing conditions. To that end, protein A sepharose beads (GE Healthcare) were pre-coated with antibodies directed against Ssb, Zuo1, or Ssz1 and subsequently the denatured crosslinked material was allowed to bind to the beads resuspended in immunoprecipitation buffer (10 mM TRIS/HCl pH 7.5, 150 mM NaCl, 5 mM EDTA, 1% Triton X-100, protease inhibitor mix, 0.5 mM PMSF)[20]. Crosslink products bound to protein A sepharose beads were released by addition of SDS-sample buffer at 95 °C for 10 min. Samples were analyzed on Tris-Tricine gels[56] followed by autoradiography. Loading was normalized according to the signal of [^35S]-labelled nascent Pgk1 in the total prior to crosslinking. Relative crosslinking efficiencies between nascent Pgk1-100 and Zuo1 or Ssz1, respectively were determined as follows. For each biological replicate, band intensities of non-crosslinked nascent Pgk1-100 and of Pgk1-100 crosslink products (XL-Zuo1 or XL-Ssz1) was determined on a single autoradiograph for wild type RAC and the different mutant variants of RAC. The crosslinking efficiency (XL-Zuo1/Pgk1-100 or XL-Ssz1/Pgk1-100) of each sample was calculated and subsequently the ratio of XL-Zuo1/Pgk1-100 or XL-Ssz1/Pgk1-100 in the presence of wild type RAC was set to 1 in order to normalize the biological replicates (see Fig. 3c,d). The original data are provided as a Source Data file.
For complementation experiments translation reactions were performed in either ∆ssb1∆ssb2 or ∆ssb1∆ssb2∆zuo1∆ssz1 translation extract as indicated. Complementation with purified Ssb1 was performed by adding His6-tagged ScSsb1 at a final concentration of 2 µM to the translation reaction prior to the addition of mRNA. Ribosome-free cytosolic extract of various mutant yeast strains for complementation experiments as indicated in Results and Figure Legends was generated as follows. The A260 of a total cell extract prepared by the glass beads method (see above) was determined, and the total cell extract was subsequently adjusted to a final concentration of 800 mM KOAc. […]

nascent Pgk1-50 = test: crosslinking to ribosome-bound nascent chain; type: binding, Saccharomyces cerevisiae; details: wild type translation extract; BS3
Excerpt: as §1, §2

[1] = test system: nascent Pgk1 chains of 50–150 residues; test: crosslinking to ribosome-bound nascent chain; type: binding, Saccharomyces cerevisiae; details: Δssb1Δssb2 translation extract (Ssb absent); BS3
Excerpt: as §1, §2

nascent Pgk1-45 = test: crosslinking to ribosome-bound nascent chain; type: binding, Saccharomyces cerevisiae; details: wild type translation extract; BS3
Excerpt: as §1, §2

nascent Pgk1-40 = test: crosslinking to ribosome-bound nascent chain; type: binding, Saccharomyces cerevisiae; details: wild type translation extract; BS3
Excerpt: as §1, §2

Row | Molecule | crosslink to nascent Pgk1-50 (nascent Pgk1-50) | crosslink to nascent chains of 50–150 residues [1] | crosslink to nascent Pgk1-45 (nascent Pgk1-45) | crosslink to nascent Pgk1-40 (nascent Pgk1-40) | also measured
1 | Ssb-ΔC23 | – | – | – | – | ribosome association (ribosomes; Ssb-ΔC23 translation extract, supernatant/pellet, immunoblot): not ribosome-associated but fully recovered in the supernatant fraction; ribosome binding (ribosomes; total cell extract, supernatant/pellet, immunoblot): fully recovered in the cytosol; crosslink to nascent Pgk1-100 (nascent Pgk1-100; Ssb-ΔC23 translation extract): no crosslink between Ssb-ΔC23 and Pgk1-100 was detected
2 | Zuo1: J-domain protein (Hsp40), RAC subunit (protein) MFSLPTLTSDITVEVNSSATKTPFVRRPVEPVGKFFLQHAQRTLRNHTWSEFERIEAEKNVKTVDESNVDPDELLFDTELADEDLLTHDARDWKTADLYAAMGLSKLRFRATESQIIKAHRKQVVKYHPDKQSAAGGSLDQDGFFKIIQKAFETLTDSNKRAQYDSCDFVADVPPPKKGTDYDFYEAWGPVFEAEARFSKKTPIPSLGNKDSSKKEVEQFYAFWHRFDSWRTFEFLDEDVPDDSSNRDHKRYIERKNKAARDKKKTADNARLVKLVERAVSEDPRIKMFKEEEKKEKERRKWEREAGARAEAEAKAKAEAEAKAKAESEAKANASAKADKKKAKEAAKAAKKKNKRAIRNSAKEADYFGDADKATTIDEQVGLIVDSLNDEELVSTADKIKANAAGAKEVLKESAKTIVDSGKLPSSLLSYFV | below the detection limit | efficient crosslinks | formed crosslinks with these short nascent chains | most efficiently crosslinked to Pgk1-40 | crosslinking of Zuo1 to nascent Pgk1 when RAC or Ssz1 is absent from ribosomes (nascent Pgk1-100; Fig. 1e set-up): strongly enhanced; contact of Zuo1 with nascent Pgk1-100 when Ssz1 was absent or not in a stable complex (nascent Pgk1-100; Δzuo1Δssz1Δssb1Δssb2 RNCs complemented with ribosome-free extracts): remained in contact with Zuo1
3 | Ssz1: Hsp70 homolog, RAC subunit (protein, left off: His6-SUMO, N-terminal, state not stated, Hsp70 homolog, RAC subunit) MSSPVIGITFGNTSSSIAYINPKNDVDVIANPDGERAIPSALSYVGEDEYHGGQALQQLIRNPKNTIINFRDFIGLPFDKCDVSKCANGAPAVEVDGKVGFVISRGEGKEEKLTVDEVVSRHLNRLKLAAEDYIGSAVKEAVLTVPTNFSEEQKTALKASAAKIGLQIVQFINEPSAALLAHAEQFPFEKDVNVVVADFGGIRSDAAVIAVRNGIFTILATAHDLSLGGDNLDTELVEYFASEFQKKYQANPRKNARSLAKLKANSSITKKTLSNATSATISIDSLADGFDYHASINRMRYELVANKVFAQFSSFVDSVIAKAELDPLDIDAVLLTGGVSFTPKLTTNLEYTLPESVEILGPQNKNASNNPNELAASGAALQARLISDYDADELAEALQPVIVNTPHLKKPIGLIGAKGEFHPVLLAETSFPVQKKLTLKQAKGDFLIGVYEGDHHIEEKTLEPIPKEENAEEDDESEWSDDEPEVVREKLYTLGTKLMELGIKNANGVEIIFNINKDGALRVTARDLKTGNAVKGEL | below the detection limit | efficient crosslinks | most efficiently crosslinked to Pgk1-45 | formed crosslinks with these short nascent chains | localization of Ssz1 in RAC-∆N49 (ribosomes; total cell extract): localized to the cytosol; localization of Ssz1 in wild type, RAC-∆N8, or RAC-∆N16 (ribosomes; total cell extract): ribosome-bound
4 | Ssz1mut: Ssz1 with L439S/K440P/I448F/G495K in the peptide binding groove (protein) MSSPVIGITFGNTSSSIAYINPKNDVDVIANPDGERAIPSALSYVGEDEYHGGQALQQLIRNPKNTIINFRDFIGLPFDKCDVSKCANGAPAVEVDGKVGFVISRGEGKEEKLTVDEVVSRHLNRLKLAAEDYIGSAVKEAVLTVPTNFSEEQKTALKASAAKIGLQIVQFINEPSAALLAHAEQFPFEKDVNVVVADFGGIRSDAAVIAVRNGIFTILATAHDLSLGGDNLDTELVEYFASEFQKKYQANPRKNARSLAKLKANSSITKKTLSNATSATISIDSLADGFDYHASINRMRYELVANKVFAQFSSFVDSVIAKAELDPLDIDAVLLTGGVSFTPKLTTNLEYTLPESVEILGPQNKNASNNPNELAASGAALQARLISDYDADELAEALQPVIVNTPHLKKPIGLIGAKGEFHPVLLAETSFPVQKKLTSPQAKGDFLFGVYEGDHHIEEKTLEPIPKEENAEEDDESEWSDDEPEVVREKLYTLKTKLMELGIKNANGVEIIFNINKDGALRVTARDLKTGNAVKGEL | – | – | – | – | contact of nascent Pgk1-100 with Ssz1mut compared to Ssz1 (nascent Pgk1-100; RACmut-ΔN8 (Zuo1-ΔN8/Ssz1mut) vs RAC-ΔN8): impaired; also recorded: strongly reduced
